# Laboratory results from PMC12394722, “Regulatory role of the N-terminal intrinsically disordered region of the DEAD-box RNA helicase DDX3X in selective RNA recognition”.
# B1: GC-14mer dsRNA-FAM (dsRNA)
# RNA 1: GGGCGGGCCCGCCC
# RNA 2: GGGCGGGCCCGCCC
# Biological target: MBP-FL DDX3X (human, UniProt O00571 1-662)
# Experiment: EMSA; 1 mM ATP-Mg; peer review file prints 665; EMSA: 20 mM K-phosphate pH 7.0, 125 mM KCl, 1 mM DTT, 0.005% Tween-20, 10% glycerol (1 mM ATP-Mg for MBP-FL/Core-C), gel at room temperature; ITC: 20 mM K-phosphate pH 7.0, 50 mM KCl, 25 C; NMR: 200 mM KCl (also 120 mM), 10 C, 50 uM
# Conditions: protein: recombinant; tags: N-terminal His6-MBP; chain copies: 2; label: 3'-FAM; blunt, self-complementary
# Chain of MBP-FL DDX3X (O00571 whole entry): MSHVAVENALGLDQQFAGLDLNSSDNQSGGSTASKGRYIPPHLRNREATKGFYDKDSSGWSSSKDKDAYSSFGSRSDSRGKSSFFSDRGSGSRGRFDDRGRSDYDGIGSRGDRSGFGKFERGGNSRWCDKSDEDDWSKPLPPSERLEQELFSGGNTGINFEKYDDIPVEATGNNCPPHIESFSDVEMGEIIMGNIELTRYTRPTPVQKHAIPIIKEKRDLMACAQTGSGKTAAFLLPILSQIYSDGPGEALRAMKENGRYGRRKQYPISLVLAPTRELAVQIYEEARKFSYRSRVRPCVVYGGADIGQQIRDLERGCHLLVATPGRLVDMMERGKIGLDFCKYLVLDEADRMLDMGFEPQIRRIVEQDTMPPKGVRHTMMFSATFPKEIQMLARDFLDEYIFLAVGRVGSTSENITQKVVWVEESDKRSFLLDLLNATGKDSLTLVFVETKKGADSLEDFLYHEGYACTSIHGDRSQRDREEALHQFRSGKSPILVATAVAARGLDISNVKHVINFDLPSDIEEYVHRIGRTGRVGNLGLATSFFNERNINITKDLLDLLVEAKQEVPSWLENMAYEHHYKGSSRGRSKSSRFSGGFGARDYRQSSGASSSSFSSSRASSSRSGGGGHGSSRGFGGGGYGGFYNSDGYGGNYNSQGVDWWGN
binder,measurement,value
B1,Kd,655 ± 31 nM
